Reference: patent US20070032406A1 (UNIVERSITY OF ROCHESTER, published 2007)

T1: NgR1 (Nogo receptor; full-length, N-terminally myc-tagged rat NgR) (rat, UniProt Q99M75 26-447)
T1 construct: GPI-linked; Expressed on COS-7 cells, in HEK293T cells (co-IP) and by adenovirus in rat DRG neurons; the tag is stated only for the COS-7 construct; also called myc-NgR[Pro26-Cys473]
T1 sequence: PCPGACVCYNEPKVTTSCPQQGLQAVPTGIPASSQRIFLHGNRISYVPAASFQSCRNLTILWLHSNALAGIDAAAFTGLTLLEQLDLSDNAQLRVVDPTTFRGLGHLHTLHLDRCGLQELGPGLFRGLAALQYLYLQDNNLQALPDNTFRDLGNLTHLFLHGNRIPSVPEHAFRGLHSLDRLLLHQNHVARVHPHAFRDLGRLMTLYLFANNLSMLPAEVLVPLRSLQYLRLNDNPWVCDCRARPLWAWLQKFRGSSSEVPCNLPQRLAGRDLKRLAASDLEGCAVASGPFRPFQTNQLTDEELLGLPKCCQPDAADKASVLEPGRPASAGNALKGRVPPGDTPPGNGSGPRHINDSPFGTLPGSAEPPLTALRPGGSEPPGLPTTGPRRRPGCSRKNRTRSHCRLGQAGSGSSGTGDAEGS

T2: NgR2 (full-length, N-terminally myc-tagged rat NgR2) (rat, UniProt Q80WD1 30-390)
T2 construct: also called myc-NgR2[Ser30-Leu420]
T2 sequence: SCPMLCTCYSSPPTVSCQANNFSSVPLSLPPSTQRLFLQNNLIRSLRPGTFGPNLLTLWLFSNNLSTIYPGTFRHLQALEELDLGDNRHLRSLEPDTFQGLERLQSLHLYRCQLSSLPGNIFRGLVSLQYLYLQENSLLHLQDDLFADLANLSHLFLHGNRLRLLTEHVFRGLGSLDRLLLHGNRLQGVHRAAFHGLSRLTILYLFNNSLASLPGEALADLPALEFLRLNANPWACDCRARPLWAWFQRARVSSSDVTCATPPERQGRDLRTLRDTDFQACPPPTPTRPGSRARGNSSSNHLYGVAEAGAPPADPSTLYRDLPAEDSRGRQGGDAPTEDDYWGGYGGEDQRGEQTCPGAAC

T3: NgR3 (full-length, N-terminally myc-tagged rat NgR3) (rat, UniProt Q80WD0 24-424)
T3 construct: also called myc-NgR3[Gly24-Arg445]
T3 sequence: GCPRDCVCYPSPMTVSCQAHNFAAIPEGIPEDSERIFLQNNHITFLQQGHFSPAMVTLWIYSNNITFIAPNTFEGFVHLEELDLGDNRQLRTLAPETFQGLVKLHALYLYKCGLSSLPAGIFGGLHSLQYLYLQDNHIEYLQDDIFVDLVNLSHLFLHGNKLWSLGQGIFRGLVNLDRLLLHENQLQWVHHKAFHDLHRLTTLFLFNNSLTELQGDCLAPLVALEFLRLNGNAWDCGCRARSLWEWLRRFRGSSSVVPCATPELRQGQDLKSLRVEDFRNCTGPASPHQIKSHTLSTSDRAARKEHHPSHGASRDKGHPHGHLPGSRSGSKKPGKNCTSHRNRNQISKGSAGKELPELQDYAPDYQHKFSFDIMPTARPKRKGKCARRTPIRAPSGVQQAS


Experiments:
[1] = molecular target: NgR2 (full-length, N-terminally myc-tagged rat NgR2) (rat) (UniProt Q80WD1); assay: MAG-Fc binding to NgR2 expressing COS-7 cells
[2] = molecular target: NgR2 (full-length, N-terminally myc-tagged rat NgR2) (rat) (UniProt Q80WD1); assay: Scatchard plot analysis, MAG-Fc on NgR2 expressing COS-7 cells
[3] = molecular target: NgR2 (full-length, N-terminally myc-tagged rat NgR2) (rat) (UniProt Q80WD1); assay: MAG-Fc binding to transfected COS-7 cells, direct comparison with NgR
[4] = molecular target: NgR2 (full-length, N-terminally myc-tagged rat NgR2) (rat) (UniProt Q80WD1); assay: estimated from the 5 fold comparison on COS-7 cells and the literature Kd of MAG-Fc/NgR
[5] = molecular target: T1, NgR1 (Nogo receptor; full-length, …); assay: AP-ligand binding to transfected COS-7 cells
[6] = molecular target: T2, NgR2 (full-length, N-terminally …); assay: AP-ligand binding to transfected COS-7 cells
[7] = molecular target: T3, NgR3 (full-length, N-terminally …); assay: AP-ligand binding to transfected COS-7 cells

Sequence of MAG-Fc (MAG ectodomain fused to the Fc fragment of human immunoglobulin) (Fc fusion) (P07722 20-516): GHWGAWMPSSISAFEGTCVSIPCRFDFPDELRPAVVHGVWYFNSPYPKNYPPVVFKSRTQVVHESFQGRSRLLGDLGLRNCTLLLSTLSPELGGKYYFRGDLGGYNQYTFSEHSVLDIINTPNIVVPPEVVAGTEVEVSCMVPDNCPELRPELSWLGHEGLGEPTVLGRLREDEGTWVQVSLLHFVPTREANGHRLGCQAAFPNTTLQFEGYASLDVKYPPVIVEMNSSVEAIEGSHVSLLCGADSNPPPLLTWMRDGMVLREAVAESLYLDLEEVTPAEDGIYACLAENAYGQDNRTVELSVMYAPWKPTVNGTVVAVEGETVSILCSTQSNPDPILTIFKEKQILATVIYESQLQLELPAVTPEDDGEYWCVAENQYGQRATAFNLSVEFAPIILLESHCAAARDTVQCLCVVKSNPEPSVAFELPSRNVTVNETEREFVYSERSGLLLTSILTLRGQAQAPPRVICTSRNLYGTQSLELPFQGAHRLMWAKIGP

| binding result [5] | binding result [6] | binding result [7] | Molecule | concentration at which binding saturates [1] | Kd [2] | fold tighter binding than to NgR [3] | Kd [4] |
| --- | --- | --- | --- | --- | --- | --- | --- |
| – | – | – | MAG-Fc (MAG ectodomain fused to the Fc fragment of human immunoglobulin) (Fc fusion) | 5 to 10 nM | 2 nM | 5 fold | 1 to 2 nM |
| no binding | no binding | no binding | AP-sNgR^C-term (LRRCT domain together with the unique domain of NgR, residues 261-445, AP fusion) (receptor, Soluble, made in HEK293T cells; also called AP-sNgRCTu [Pro261-Glu445]; AP-NgR^C-term; not shown: alkaline phosphatase (AP) tag) PWVCDCRARPLWAWLQKFRGSSSEVPCNLPQRLAGRDLKRLAASDLEGCAVASGPFRPFQTNQLTDEELLGLPKCCQPDAADKASVLEPGRPASAGNALKGRVPPGDTPPGNGSGPRHINDSPFGTLPGSAEPPLTALRPGGSEPPGLPTTGPRRRPGCSRKNRTRSHCRLGQAGSGSSGTGDAE | – | – | – | – |
